How the values were obtained:
TDP-43 RRM2 [1] = biological target: T1, TDP-43 RRM2 (UniProt Q13148 186-267); experiment: fluorescence anisotropy; Anisotropy: 50 mM Tris, 100 mM NaCl, pH 8.0, 10 C, 0.1 uM probe, 0-30 uM protein (RNasin for RNA); pull-down: same buffer on Ni resin, room temperature, 1 h, eluted with 1 M NaCl; conditions: protein: recombinant; tags: N-term His6 + thrombin site + GSSGSSG linker; His removed by thrombin for anisotropy, kept for pull-down; label: 5'-fluorescein
TDP-43 RRM1 [2] = biological target: T2, TDP-43 RRM1 (UniProt Q13148 96-185); experiment: as above; conditions: protein: recombinant; tags: N-term His6 + thrombin site + GSSGSSG linker; His removed by thrombin for anisotropy, kept for pull-down; label: 5'-fluorescein
T2 sequence (Q13148 96-185): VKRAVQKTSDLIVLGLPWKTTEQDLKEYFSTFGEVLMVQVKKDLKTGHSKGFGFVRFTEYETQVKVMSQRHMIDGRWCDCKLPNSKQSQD

TDP-43 RRM1-2 [3] = biological target: T3, TDP-43 RRM1-2 (UniProt Q13148 96-267); experiment: as above; conditions: protein: recombinant; tags: N-term His6 + thrombin site + GSSGSSG linker; His removed by thrombin for anisotropy, kept for pull-down; label: 5'-fluorescein
T3 sequence (Q13148 96-267): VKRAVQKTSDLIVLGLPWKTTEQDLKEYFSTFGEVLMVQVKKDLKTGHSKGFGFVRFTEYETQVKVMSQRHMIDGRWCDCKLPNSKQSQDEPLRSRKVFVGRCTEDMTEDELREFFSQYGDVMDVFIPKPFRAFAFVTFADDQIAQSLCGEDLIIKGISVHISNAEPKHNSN

TDP-43 RRM2 [4] = biological target: T1, TDP-43 RRM2; experiment: fluorescence anisotropy; RNasin; Anisotropy: 50 mM Tris, 100 mM NaCl, pH 8.0, 10 C, 0.1 uM probe, 0-30 uM protein (RNasin for RNA); pull-down: same buffer on Ni resin, room temperature, 1 h, eluted with 1 M NaCl; conditions: protein: recombinant; tags: N-term His6 + thrombin site + GSSGSSG linker; His removed by thrombin for anisotropy, kept for pull-down; label: 5'-fluorescein
TDP-43 RRM1 [5] = biological target: T2, TDP-43 RRM1; experiment: as above; conditions: protein: recombinant; tags: N-term His6 + thrombin site + GSSGSSG linker; His removed by thrombin for anisotropy, kept for pull-down; label: 5'-fluorescein
TDP-43 RRM1-2 [6] = biological target: T3, TDP-43 RRM1-2; experiment: as above; conditions: protein: recombinant; tags: N-term His6 + thrombin site + GSSGSSG linker; His removed by thrombin for anisotropy, kept for pull-down; label: 5'-fluorescein
TDP-43 RRM2 [7] = biological target: T1, TDP-43 RRM2; experiment: pull-down; Anisotropy: 50 mM Tris, 100 mM NaCl, pH 8.0, 10 C, 0.1 uM probe, 0-30 uM protein (RNasin for RNA); pull-down: same buffer on Ni resin, room temperature, 1 h, eluted with 1 M NaCl; conditions: protein: recombinant; tags: N-term His6 + thrombin site + GSSGSSG linker; His removed by thrombin for anisotropy, kept for pull-down
TDP-43 RRM1 [8] = biological target: T2, TDP-43 RRM1; experiment: as above; conditions: protein: recombinant; tags: N-term His6 + thrombin site + GSSGSSG linker; His removed by thrombin for anisotropy, kept for pull-down
TDP-43 RRM1-2 [9] = biological target: T3, TDP-43 RRM1-2; experiment: as above; conditions: protein: recombinant; tags: N-term His6 + thrombin site + GSSGSSG linker; His removed by thrombin for anisotropy, kept for pull-down

T1 sequence (Q13148 186-267): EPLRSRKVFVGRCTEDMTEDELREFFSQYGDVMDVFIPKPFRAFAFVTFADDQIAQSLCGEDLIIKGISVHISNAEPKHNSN

Binder	binding result (TDP-43 RRM2 [1])	Kd (TDP-43 RRM1 [2]) [nM]	Kd (TDP-43 RRM1-2 [3]) [nM]	binding result (TDP-43 RRM2 [7])	binding result (TDP-43 RRM1 [8])	binding result (TDP-43 RRM1-2 [9])	other results
TGTGTGTG (ssDNA) [Fl-(TG)4 ssDNA]	no binding	52 ± 12	77 ± 4.2				
UGUGUGUG (ssDNA, DNA with T replaced by U) [Fl-(UG)4 ssDNA]	no binding	61 ± 30	150 ± 23				
ACACACAC (ssDNA) [Fl-(AC)4 ssDNA]	no binding						binding result (TDP-43 RRM1 [2]): no binding; binding result (TDP-43 RRM1-2 [3]): no binding
UGUGUGUG (ssRNA) [Fl-(UG)4 RNA]							binding result (TDP-43 RRM2 [4]): no binding; Kd (TDP-43 RRM1 [5]): 28 ± 9 nM; Kd (TDP-43 RRM1-2 [6]): 3.5 ± 2.3 nM
TTTTTTTTTTTT (ssDNA) [T12]				no binding	binds	binds	
TTTTTTTTTTTTTTTTTTTTTTTTTTTTTT (ssDNA) [T30]				no binding	binds	binds	

— paper PMC4738331, “A molecular mechanism realizing sequence-specific recognition of nucleic acids by TDP-43”
